This assay addresses GST-cytPERK (cytosolic domain of PERK expressed as a GST fusion protein) (mouse). The experiment in a line: cross-linking; GST-cytPERK (1.3 µM) in solution, phosphate buffer pH 7.4, 2 mM MgCl2, 70 mM KCl, 1 mM DTT; 20 min at 27 °C with UDCA (50, 200, 1000 µM) or without, then 0.4 mM DSS for 30 min at 27 °C; quenched with Tris-HCl; 7% SDS-PAGE, blot with anti-PERK antibody; dimer relative to monomer by densitometry.

The stoichiometry N is a count of units in the complex or per binding partner. Turning to “GST-cytPERK (cytosolic domain of PERK expressed as a GST fusion protein) (domain or fragment)”, the stoichiometry N was found to be 2.
